In assay [1] the target is T1, recombinant mouse EphA4-Fc fusion protein (mouse, UniProt Q03137 20-547, limits assumed).
T1 construct: also called mEphA4; not shown: Fc part, not described
The assay can be described thus: ELISA on coated receptor. How it is done: (§1) A 96-well plate was coated with recombinant mEphB1, -2, -3, -4, -6, mEphA4 and hEphB4 in PBS o/n at 4° C. (5 μg/mL; 100 μL/well). The next day, the antigen was discarded and the plate blocked with 3% BSA/PBS (300 μl/well) for 2 hrs at room temperature (RT). Blocking solution was discarded and anti-EphB4 Fabs were added to the wells at a concentration of 20 μg/mL in 1% BSA/PBS and incubated for 1 hr at RT. Fabs were discarded and the plate was washed 3× with PBS. Anti-human F(ab′)₂—HRP was added at a concentration recommended by the manufacturer in 1% BSA/PBS and incubated for 1 hr at RT. The plate was washed 3× with PBS and 100 μL/well chemifluorescent substrate was added. After development, fluorescence was measured in a fluorescence reader.
A general note: An ELISA detects its analyte on a solid surface through an enzyme-linked reagent.

In assay [2] the target is T2, recombinant mouse EphB2 (mouse, UniProt P54763 19-540, limits assumed).
T2 construct: also called mEphB2
T2 sequence (looked up): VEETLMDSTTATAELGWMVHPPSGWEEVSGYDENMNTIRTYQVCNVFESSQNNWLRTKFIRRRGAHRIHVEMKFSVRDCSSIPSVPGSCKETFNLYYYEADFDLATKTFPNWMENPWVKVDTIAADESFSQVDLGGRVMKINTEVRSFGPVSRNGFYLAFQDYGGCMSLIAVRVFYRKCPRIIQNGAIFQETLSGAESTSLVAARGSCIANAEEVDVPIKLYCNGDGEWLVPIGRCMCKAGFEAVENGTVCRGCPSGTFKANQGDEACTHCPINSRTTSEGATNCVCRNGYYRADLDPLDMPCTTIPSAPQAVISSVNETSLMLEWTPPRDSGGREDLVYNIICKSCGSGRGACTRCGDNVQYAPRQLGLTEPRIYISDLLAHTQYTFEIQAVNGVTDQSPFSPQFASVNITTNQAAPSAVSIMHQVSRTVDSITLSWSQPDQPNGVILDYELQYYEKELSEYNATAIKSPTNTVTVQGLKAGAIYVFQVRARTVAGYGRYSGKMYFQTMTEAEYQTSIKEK
The experiment in a line: ELISA on coated receptor. How it is done:
as §1

Assay [3] addresses T3, myc-tagged human EphB4 on transfected CHO cells (human, UniProt P54760 16-987).
T3 construct: whole, on cells; also called CHO-EphB4; CHO-hEphB4; not shown: myc tag
T3 sequence (looked up): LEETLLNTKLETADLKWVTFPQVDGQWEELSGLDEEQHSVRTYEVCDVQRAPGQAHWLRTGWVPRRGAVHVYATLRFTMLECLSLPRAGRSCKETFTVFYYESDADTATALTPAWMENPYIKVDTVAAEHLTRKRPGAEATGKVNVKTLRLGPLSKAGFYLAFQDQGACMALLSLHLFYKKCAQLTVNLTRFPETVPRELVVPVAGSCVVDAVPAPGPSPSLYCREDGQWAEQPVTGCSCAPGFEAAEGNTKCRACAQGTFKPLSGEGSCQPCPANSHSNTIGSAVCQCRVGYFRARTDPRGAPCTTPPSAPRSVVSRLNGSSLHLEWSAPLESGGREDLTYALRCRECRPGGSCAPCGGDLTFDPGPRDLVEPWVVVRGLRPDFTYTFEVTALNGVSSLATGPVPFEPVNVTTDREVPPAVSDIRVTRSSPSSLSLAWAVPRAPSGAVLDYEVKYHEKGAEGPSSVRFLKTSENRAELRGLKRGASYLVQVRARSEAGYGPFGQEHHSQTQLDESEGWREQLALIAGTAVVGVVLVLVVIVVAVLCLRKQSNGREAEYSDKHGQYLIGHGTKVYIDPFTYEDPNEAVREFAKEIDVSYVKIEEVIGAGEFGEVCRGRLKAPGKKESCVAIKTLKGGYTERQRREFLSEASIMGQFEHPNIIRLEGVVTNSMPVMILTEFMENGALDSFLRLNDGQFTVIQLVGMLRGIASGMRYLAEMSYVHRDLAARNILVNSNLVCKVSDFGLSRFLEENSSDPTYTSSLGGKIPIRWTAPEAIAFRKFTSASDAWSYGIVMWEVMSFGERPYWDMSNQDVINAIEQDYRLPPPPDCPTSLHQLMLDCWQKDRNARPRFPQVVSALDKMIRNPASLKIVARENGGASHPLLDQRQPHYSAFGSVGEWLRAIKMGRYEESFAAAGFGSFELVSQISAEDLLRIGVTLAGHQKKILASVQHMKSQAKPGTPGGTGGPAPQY
The experiment in a line: FACS titration on CHO-EphB4 cells.

In assay [4] the target is T3, myc-tagged human EphB4 on transfected …. The assay can be described thus: FACS, inhibition of murine ephrin-B2 binding to CHO-EphB4 cells. On the procedure:
CHO-EphB4 cells were preincubated with matured Fab at different concentrations followed by addition of the ligand, murine ephrin-B2 (extracellular domain, 98% identity to human Ephrin-B2). Receptor-bound ephrin-B2 was then detected via biotinylated anti-mouse ephrin-B2 antibody (R&D Systems) and streptavidin-PE. […] The MOR07310 derivatives perform slightly better than the MOR03641 derivatives. The IC50 values of the x-cloned binders are in the same range as those of their cloning parentals.
(A flow cytometer gives signals particle by particle.)

Assay [5] concerns the target T1, recombinant mouse EphA4-Fc fusion …. The experiment in a line: ELISA, well P15 [part 2].

T1 sequence (Q03137 20-547 limits assumed): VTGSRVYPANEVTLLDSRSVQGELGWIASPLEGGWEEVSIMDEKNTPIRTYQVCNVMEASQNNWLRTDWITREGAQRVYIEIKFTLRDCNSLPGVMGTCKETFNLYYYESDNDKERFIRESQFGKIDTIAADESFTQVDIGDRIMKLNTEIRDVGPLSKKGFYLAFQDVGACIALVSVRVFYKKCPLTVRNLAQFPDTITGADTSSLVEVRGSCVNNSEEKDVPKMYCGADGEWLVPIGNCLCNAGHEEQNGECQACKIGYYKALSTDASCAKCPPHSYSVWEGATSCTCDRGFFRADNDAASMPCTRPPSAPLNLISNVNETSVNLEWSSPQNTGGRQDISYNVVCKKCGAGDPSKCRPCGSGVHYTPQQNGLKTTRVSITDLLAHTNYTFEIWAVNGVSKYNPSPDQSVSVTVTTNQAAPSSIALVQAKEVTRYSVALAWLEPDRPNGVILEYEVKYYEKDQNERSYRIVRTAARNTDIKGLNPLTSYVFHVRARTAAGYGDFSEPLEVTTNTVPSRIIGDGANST

B1: MOR03641 Fab (Fab, V domains shown)
VH: QVQLVQSGAEVKKPGSSVKVSCKASGGTFSTYAISWVRQAPGQGLEWMGRIIPIFGTANYAQKFQGRVTITADESTSTAYMELSSLRSEDTAVYYCARSSYTILTTYYNYNAMDNWGQGTLVTVSS
VL: DIQMTQSPSSLSASVGDRVTITCRASQNINNFLNWYQQKPGKAPKLLIYGSSILQSGVPSRFSGSGSGTDFTLTISSLQPEDFAVYYCHQVSDTSDTFGQGTKVEIKR
notes: Monomeric HuCAL Fab (VH1A, kappa1), purified, MH-tagged; also called 3541 [sic]
Turning to B1, the binding result in assay [1] and in assay [2] was “no binding (tested: 20 µg/mL)” each time. In assay [3], this molecule displayed an EC50 of over 40 nM. This molecule came in with an IC50 in assay [4] of 4.7 nM.

B2: MOR03640 Fab (Fab, V domains shown)
VH: QVQLVESGGGLVQPGGSLRLSCAASGFTFNNSWMSWVRQAPGKGLEWVSNITSSSSMTHYADSVKGRFTISRDNSKNTLYLQMNSLRAEDTAVYYCARKGMSFYNNKYAKSMFDLWGQGTLVTVSS
VL: DIELTQPPSVSVAPGQTARISCSGDNLGKKYVHWYQQKPGQAPVLVIYYDSKRPSGIPERFSGSNSGNTATLTISGTQAEDEADYYCSAWTTTMMHIVFGGGTKLTVLG
notes: Monomeric HuCAL Fab, purified, MH-tagged
Regarding B2, the binding result in assay [5] was “no binding”.

B3: MOR03639 Fab (Fab, V domains shown)
VH: QVQLVESGGGLVQPGGSLRLSCAASGFTFSNYYLHWVRQAPGKGLEWVSGISYSGSSTYYADSVKGRFTISRDNSKNTLYLQMNSLRAEDTAVYYCARFYQRRQIPHGYDVWGQGTLVTVSS
VL: DIELTQPPSVSVAPGQTARISCSGDNIGDYYVHWYQQKPGQAPVLVIYRDSNRPSGIPERFSGSNSGNTATLTISGTQAEDEADYYCGSYDMPFGGTVFGGGTKLTVLG
notes: Monomeric HuCAL Fab (VH3, lambda3), purified, MH-tagged
For B3, the binding result in assay [1] and in assay [2] was “no binding (tested: 20 µg/mL)” throughout.

For orientation: EC50 means the concentration giving half of the maximal effect. The term IC50 denotes the point on the concentration scale where inhibition reaches its midpoint.

These data come from patent publication US20090137002A1 (published 2009).
